Columns and labels:
[1] = molecular target: T1, human CEACAM1 expressed on CHO cells (human, UniProt P13688 35-526); experiment: flow cytometry on CEACAM1-transfected CHO cells, fluorochrome-conjugated anti-human IgG [1/2) B]
T1 construct: whole, on cells; also called CHO-CEACAM1; CEACAM1 on cells
T1 sequence (looked up): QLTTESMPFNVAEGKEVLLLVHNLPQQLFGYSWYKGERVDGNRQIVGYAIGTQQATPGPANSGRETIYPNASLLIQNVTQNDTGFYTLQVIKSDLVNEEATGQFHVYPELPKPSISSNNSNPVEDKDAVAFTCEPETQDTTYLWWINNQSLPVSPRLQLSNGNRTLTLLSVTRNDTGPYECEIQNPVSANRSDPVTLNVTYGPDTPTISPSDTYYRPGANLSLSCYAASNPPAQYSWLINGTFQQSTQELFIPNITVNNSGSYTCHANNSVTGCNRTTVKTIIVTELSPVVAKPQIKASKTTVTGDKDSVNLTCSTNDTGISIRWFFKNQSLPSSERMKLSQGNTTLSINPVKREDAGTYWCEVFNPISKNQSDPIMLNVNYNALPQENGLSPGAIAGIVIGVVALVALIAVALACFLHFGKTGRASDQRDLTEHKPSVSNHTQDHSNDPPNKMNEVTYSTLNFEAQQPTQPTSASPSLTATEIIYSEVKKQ
From the text: The human CEACAM5 and CEACAM1 genes were cloned into pcDNA3.1, and the vector was subsequently stably transfected into CHO cells. […] Binding of the antibodies was detected using fluorochrome-conjugated anti-human IgG and analyzed using flow cytometry.

[2] = molecular target: T2, human CEACAM1 (hCEACAM-1, #2244-CM-050, R&D Systems) (human, UniProt P13688 35-428); experiment: ELISA; antigen coated at 0.5 µg/mL, bsAb titrated, anti-human kappa-HRP, luminescence [5/7) Multi44]
T2 construct: Bought protein
T2 sequence (looked up): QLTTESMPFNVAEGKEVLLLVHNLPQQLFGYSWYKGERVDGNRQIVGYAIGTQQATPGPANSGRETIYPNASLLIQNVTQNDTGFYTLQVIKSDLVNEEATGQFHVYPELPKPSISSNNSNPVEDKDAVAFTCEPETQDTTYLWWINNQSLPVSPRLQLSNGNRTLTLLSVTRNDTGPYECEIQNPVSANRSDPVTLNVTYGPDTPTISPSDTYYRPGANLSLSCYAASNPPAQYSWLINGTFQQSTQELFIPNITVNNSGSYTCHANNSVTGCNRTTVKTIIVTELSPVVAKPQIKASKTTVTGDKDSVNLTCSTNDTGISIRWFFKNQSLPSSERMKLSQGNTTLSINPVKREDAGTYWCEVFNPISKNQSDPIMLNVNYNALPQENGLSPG
Protocol: (§1) 96-well plates were coated with 0.5 μg/mL antigen, hCEACAM-1 (2244-CM-050, R&D Systems), hCEACAM-5 (4128-CM-050, R&D Systems), hCEACAM-6 (3934-CM-050, R&D Systems) or CEACAM-8 (9639-CM-050, R&D Systems) in PBS over night at 4° C. After washing in PBS/0.05% Tween 20 (PBST), the plates were blocked with PBST, 2% BSA for at least 30 minutes at room temperature before a second round of washing. RUBY bsAbs, diluted in PBST, 0.5% BSA, were then added and allowed to bind for at least 1 hour at room temperature. […] Finally, a final round of washing was performed and bound complexes detected using SuperSignal Pico Luminescent as substrate and luminescence signals were measured using Fluostar Optima.

[3] = molecular target: T3, human CEACAM6 (hCEACAM-6, #3934-CM-050, R&D Systems) (human, UniProt P40199 35-320); experiment: as above
T3 construct: Bought protein
T3 sequence (looked up): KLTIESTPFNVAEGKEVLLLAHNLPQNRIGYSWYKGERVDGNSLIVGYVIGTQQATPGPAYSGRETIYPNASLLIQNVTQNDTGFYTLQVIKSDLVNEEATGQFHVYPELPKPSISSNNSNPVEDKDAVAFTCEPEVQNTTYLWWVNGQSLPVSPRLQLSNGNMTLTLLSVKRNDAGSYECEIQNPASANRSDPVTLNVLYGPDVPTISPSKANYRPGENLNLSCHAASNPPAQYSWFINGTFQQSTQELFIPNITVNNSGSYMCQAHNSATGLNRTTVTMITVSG
Protocol: as §1

[4] = molecular target: human CD40 expressed on cells (CD40 reporter cells, HEK Blue CD40L cells, B cells, Raji cells) (human, UniProt P25942 21-277); experiment: cell-based or functional assay
Chain of human CD40 expressed on cells (CD40 reporter cells, HEK Blue CD40L cells, B cells, Raji cells) (P25942 21-277): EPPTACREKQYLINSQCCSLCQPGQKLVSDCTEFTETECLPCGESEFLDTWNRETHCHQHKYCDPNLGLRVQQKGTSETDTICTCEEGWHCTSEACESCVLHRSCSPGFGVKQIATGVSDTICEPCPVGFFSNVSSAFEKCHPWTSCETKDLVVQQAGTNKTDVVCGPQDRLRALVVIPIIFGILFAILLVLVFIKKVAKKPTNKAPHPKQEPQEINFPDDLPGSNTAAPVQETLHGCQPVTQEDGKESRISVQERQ

binding result [1]: no binding (tested: 400 nM) | binding result [2]: no binding (tested: 100 nM) | binding result [3]: no binding (tested: 100 nM) | EC50 (nM), HEK Blue CD40L SEAP reporter, CHO-CEACAM5 crosslinking, 0 Raji sink cells/well [4]: 0.02 nM | EC50 (nM), HEK Blue CD40L SEAP reporter, CHO-CEACAM5 crosslinking, 10 000 Raji sink cells/well [4]: 0.05 nM | EC50 (nM), HEK Blue CD40L SEAP reporter, CHO-CEACAM5 crosslinking, 30 000 Raji sink cells/well [4]: 0.08 nM | EC50 (nM), HEK Blue CD40L SEAP reporter, CHO-CEACAM5 crosslinking, 90 000 Raji sink cells/well [4]: 0.16 nM
B1: Multi44 (bispecific antibody)
heavy 1: not shown
light: DIQMTQSPSSLSASVGDRVTITCRASQSISSYLNWYQEKPGKAPKLLIYAASSLQSGVPSRFSGSGSGTDFTLTISSLQPEDFATYYCQQWGYLLTFGQGTKLEIKRTVAAPSVFIFPPSDEQLKSGTASVVCYLNNFYPREAKVQWKVDNALQSGNSQESVTEQDSKDSTYSLWSTLTLSKADYEKHKVYACEVTHQGLSSPVTKSFNRGEC
heavy 2: EVQLLESGGGLVQPGGSLRLSCAASGFTFSTYGMHWVREAPGKGLEWLSYISGGSSYIFYADSVKGRFTISRDNSKNTLYLQMNSLRAEDTAVYYCARILRGGSGMDLWGQGTLVTVSSASTKGPSVFPLAPSSKSTSGGTAALGCLVKDYFPEPVTVSWNSGALTSGVHTFPAVLQSSGLYSLTSVVEVPSSSLGTQTYICNVNHKPSNTKVDKKVEPKSC
notes: Optimized RUBY format; copies: 2 + 2 + 2

— patent US20260273049A1 (ALLIGATOR BIOSCIENCE, published 2026)
